The source of these data is patent US6759384 (AVENTIS PHARMACEUTICALS, dated 2004).

What is called Ki is a dissociation constant, usually derived from enzyme kinetics or from competition with a known ligand. Read a high Ki as a looser hold on the target.

Starred links: 1 amine or outer side, 2 acyl side, 3 side chain; linkers in the order of their positions; H or OH if unused. Non-standard residues stand in square brackets, D forms with d. No end group written: not given here. *: point of attachment. (iBu)F(pNH2) = N-alpha-isobutyl-4-amino-phenylalanine, CC(C)CN([C@@H](Cc1ccc(N[*:3])cc1)C(=O)[*:2])[*:1]; Phe(3-I,4-NH2) = 4-amino-3-iodo-L-phenylalanine, O=C([C@H](Cc1ccc(N[*:3])c(I)c1)N[*:1])[*:2]; (Chx-CH2)Y = N-(cyclohexylmethyl)-Tyr, O=C([C@H](Cc1ccc(O[*:3])cc1)N(CC1CCCCC1)[*:1])[*:2]; (iBu)Y = N-alpha-isobutyl-tyrosine, CC(C)CN([C@@H](Cc1ccc(O[*:3])cc1)C(=O)[*:2])[*:1]; 4‑isoquinolinoyl = 4-isoquinolinoyl N-terminal acyl group, O=C(c1cncc2ccccc12)*; Phe(4-amidino) = N=C(N)c1ccc(C[C@H](N)C(=O)O)cc1; Phe(4-CONH2) = NC(=O)c1ccc(C[C@H](N)C(=O)O)cc1; 2‑pyridonyl = 2-pyridonyl N-terminal group; Phe(4-NH2) = Nc1ccc(C[C@H](N)C(=O)O)cc1; NMeL = CN[C@@H](CC(C)C)C(=O)O; Chg = N[C@H](C(=O)O)C1CCCCC1; Tfa = O=C(C(F)(F)F)*; Bz = O=C(c1ccccc1)* A value given as a limit tells only on which side of the number the result lay.

Experiment [1] addresses T1, human factor Xa (Enzyme Research Laboratories, Inc.) (human, UniProt P00742 41-179; P00742 235-488, limits assumed). As to the kind of experiment: chromogenic FXa inhibition. Here is the method:
TBS-P buffer (50 mM Tris-Cl, pH 7.8, 200 mM NaCl, 0.05% (w/v) PEG-8000, 0.02% (w/v) NaN_3) was used for this assay. The IC$50$ was determined by combining in appropriate wells of a Costar half-area microtiter plate 25 μl human factor Xa (Enzyme Research Laboratories, Inc.; South Bend Ind.) in TBS-P; 40 μl 10% (v/v) DMSO in TBS-P (uninhibited control) or various concentrations of a peptide to be tested diluted in 10% (v/v) DMSO in TBS-P; and substrate S-2765 (Nα-benzyloxycarbonyl-D-Arg-Gly-L-Arg-p-nitroanilide; Kabi Pharmacia, Inc.; Franklin Ohio) in TBS-P.
The assays were performed by pre-incubating the peptide inhibitor plus enzyme for 10 min, then the assay was initiated by adding substrate to obtain a final volume of 100 μl. The initial velocity of chromogenic substrate hydrolysis was measured by the change in absorbance at 405 nm using a Bio-tek Instruments kinetic plate reader (Ceres UV900HDi) at 25° C. during the linear portion of the time course (usually 1–5 min after addition of substrate). The concentration of inhibitor that caused a 50% decrease in the rate of substrate hydrolysis was predicted by linear regression after plotting the relative rates of hydrolysis (compared to the uninhibited control) versus the log of the peptide concentration. The enzyme concentration was 0.5 nM and substrate concentration was 140 μM.

Experiment [2] concerns the target T1, human factor Xa (Enzyme Research …). Kind of experiment: chromogenic enzyme inhibition, IC50 corrected for substrate.
Experiment [3] shares this target. Kind of experiment: chromogenic FXa inhibition. The essentials: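 Human FXa (0.5 nM) preincubated 10 min with inhibitor in TBS-P (pH 7.8, 200 mM NaCl, PEG-8000), then S-2765 added (140 μM). Initial hydrolysis rate read at 405 nm, 25° C.; IC50 by linear regression of relative rate vs log concentration.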
This is another data set of the same source.

Experiment [4] deals with human thrombin (Enzyme Research Laboratories, Inc.) (human, UniProt P00734 328-622). Kind of experiment: chromogenic enzyme inhibition, IC50 corrected for substrate.
For experiment [5], the target named is T1, human factor Xa (Enzyme Research …). Kind of experiment: cell-based or functional assay.

T1 sequence (P00742 41-179 limits assumed, chain 1 of 2): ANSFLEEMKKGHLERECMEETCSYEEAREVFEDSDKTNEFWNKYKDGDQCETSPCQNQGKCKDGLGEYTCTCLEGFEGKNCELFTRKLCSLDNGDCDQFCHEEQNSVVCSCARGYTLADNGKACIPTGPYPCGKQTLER
T1 sequence (P00742 235-488 limits assumed, chain 2 of 2): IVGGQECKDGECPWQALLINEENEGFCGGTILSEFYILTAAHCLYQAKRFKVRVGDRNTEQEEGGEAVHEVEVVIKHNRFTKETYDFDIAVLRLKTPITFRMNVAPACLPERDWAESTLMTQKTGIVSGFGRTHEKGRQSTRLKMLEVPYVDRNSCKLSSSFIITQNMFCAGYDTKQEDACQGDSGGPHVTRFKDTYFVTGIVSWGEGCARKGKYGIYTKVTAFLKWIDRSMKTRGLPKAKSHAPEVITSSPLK

Molecule {2‑pyridonyl}-[Phe(4-NH2)][Chg]RLP-NH2 [(2-pyridonyl)Phe(pNH2)Chg-Arg-Leu-Pro-NH2] returned a Ki in experiment [1] of under 100 µM.

Turning to YIRLP (D-Tyr at 1; C-term NH2, also called (D)-Tyr-Ile-Arg-Leu-Pro-NH2) [y-I-R-L-P-NH2], the Ki is 0.2 µM in experiment [2] and under 100 µM in experiment [3].

B1: Tfa-(iBu)F(pNH2)-Chg-R-L-P-NH2 (peptide)
peptide: Tfa-[(iBu)F(pNH2)][Chg]RLP-NH2
SMILES: CC(C)C[C@H](NC(=O)[C@H](CCCNC(=N)N)NC(=O)[C@@H](NC(=O)[C@H](Cc1ccc(N)cc1)N(CC(C)C)C(=O)C(F)(F)F)C1CCCCC1)C(=O)N1CCC[C@H]1C(N)=O
notes: also called CF3C(O)-(iBu)Phe(NH2)-Chg-Arg-Leu-Pro-NH2
For B1, the Ki in experiment [1] and in experiment [3] was under 100 µM each time.

B2: Ac-Phe(pNH2)-Chg-Arg-(Me)Leu-Pro-NH2 (peptide)
peptide: Ac-[Phe(4-NH2)][Chg]R[NMeL]P-NH2
SMILES: CC(=O)N[C@@H](Cc1ccc(N)cc1)C(=O)N[C@H](C(=O)N[C@@H](CCCNC(=N)N)C(=O)N(C)[C@@H](CC(C)C)C(=O)N1CCC[C@H]1C(N)=O)C1CCCCC1
The molecule B2 yielded a Ki in experiment [1] of under 100 µM.

B3: (4-isoquinolinoyl)-Phe(pNH2)-Chg-Arg-Leu-Pro-NH2 (peptide)
peptide: {4‑isoquinolinoyl}-[Phe(4-NH2)][Chg]RLP-NH2
SMILES: CC(C)C[C@H](NC(=O)[C@H](CCCNC(=N)N)NC(=O)[C@@H](NC(=O)[C@H](Cc1ccc(N)cc1)NC(=O)c1cncc2ccccc12)C1CCCCC1)C(=O)N1CCC[C@H]1C(N)=O
In experiment [1], B3 had a Ki of under 100 µM.

B4: (Benzoyl)-Phe(pNH2)-Chg-Arg-Leu-Pro-NH2 (peptide)
peptide: Bz-[Phe(4-NH2)][Chg]RLP-NH2
SMILES: CC(C)C[C@H](NC(=O)[C@H](CCCNC(=N)N)NC(=O)[C@@H](NC(=O)[C@H](Cc1ccc(N)cc1)NC(=O)c1ccccc1)C1CCCCC1)C(=O)N1CCC[C@H]1C(N)=O
notes: also called Bz-F(pNH2)-Chg-R-L-P-NH2
Regarding B4, the Ki in experiment [1] was under 100 µM.

In experiment [1], {2‑naphthylsulfonyl}-[Phe(4-NH2)][Chg]RLP-NH2 [(2-naphthylsulfonyl)-Phe(pNH2)-Chg-Arg-Leu-Pro-NH2] had a Ki of under 100 µM.

B5: Ac-pAph-I-R-L-P-NH2 (peptide)
peptide: Ac-[Phe(4-amidino)]IRLP-NH2
SMILES: CC[C@H](C)[C@H](NC(=O)[C@H](Cc1ccc(C(=N)N)cc1)NC(C)=O)C(=O)N[C@@H](CCCNC(=N)N)C(=O)N[C@@H](CC(C)C)C(=O)N1CCC[C@H]1C(N)=O
For the molecule B5, the Ki in experiment [1] and in experiment [3] was under 100 µM in each case.

Turning to XIRLP (N-term Ac; N-(iBu) on Y1; C-term NH2) [Ac-(iBu)Y-I-R-L-P-NH2], the Ki in experiment [4] was 25 µM; in experiment [2], 0.04 µM; in experiment [3] it was under 100 µM.

B6: Ac-Phe(3I,4NH2)-Chg-Arg-Leu-Pro-NH2 (peptide)
peptide: Ac-[Phe(3-I,4-NH2)][Chg]RLP-NH2
SMILES: CC(=O)N[C@@H](Cc1ccc(N)c(I)c1)C(=O)N[C@H](C(=O)N[C@@H](CCCNC(=N)N)C(=O)N[C@@H](CC(C)C)C(=O)N1CCC[C@H]1C(N)=O)C1CCCCC1
Consider B6, for which, in experiment [1], the inhibitory constant (Ki) is under 100 µM.

B7: Ac-F(pCONH2)-Chg-R-L-P-NH2 (peptide)
peptide: Ac-[Phe(4-CONH2)][Chg]RLP-NH2
SMILES: CC(=O)N[C@@H](Cc1ccc(C(N)=O)cc1)C(=O)N[C@H](C(=O)N[C@@H](CCCNC(=N)N)C(=O)N[C@@H](CC(C)C)C(=O)N1CCC[C@H]1C(N)=O)C1CCCCC1
notes: also called Ac-Phe(pCONH2)-Chg-R-L-P-NH2; Ac-Phe(p-CONH2)-Chg-Arg-Leu-Pro-NH2
On to B7, for which the Ki in experiment [1] and in experiment [3] was under 100 µM throughout.

Tfa-Y[Chg]RLP-NH2 [Tfa-Y-Chg-R-L-P-NH2]: the inhibition constant Ki in experiment [1] and in experiment [3] was under 100 µM throughout.

The molecule Ac-[(Chx-CH2)Y][Chg]RLP-NH2 [Ac-(Chx-CH2)Tyr-Chg-Arg-Leu-Pro-NH2] registered a Ki in experiment [1] of under 100 µM.

Turning to [dY][Chg]RLP-NH2 (also called D-Tyr-Chg-Arg-Leu-Pro-NH2) [y-Chg-R-L-P-NH2], the Ki in experiment [1] and in experiment [3] was under 100 µM each time.

B8: Tfa-(iBu)Y-Chg-R-L-P-NH2 (peptide)
peptide: Tfa-[(iBu)Y][Chg]RLP-NH2
notes: also called Tfa-(iBu)Tyr-Chg-Arg-Leu-Pro-NH2
For the molecule B8, in experiment [5], the “EC50 (concentration giving 50% inhibition of coagulation), in vitro dilute prothrombin time assay, pooled human plasma” value amounted to 0.3 µM. Moreover, in experiment [3], the Ki is under 100 µM.
